Drawing on paper PMC4658703 (Science (New York, N.Y.), 2012), this text covers Kd for one molecule.

Where two headings read alike, the source gives them in different places.

The target in experiment [1] is T1, Human IGF2R domain 11 (wild type) (human, UniProt P11717 1508-1650). The experiment in a line: SPR.
The target of experiment [2] is T1, Human IGF2R domain 11 (wild type). The experiment in a line: SPR. This is another data set of the same source. On the technique in general: In SPR one partner is held on a chip, and binding of the other changes the refractive index at the surface.

T1 sequence (P11717 1508-1650): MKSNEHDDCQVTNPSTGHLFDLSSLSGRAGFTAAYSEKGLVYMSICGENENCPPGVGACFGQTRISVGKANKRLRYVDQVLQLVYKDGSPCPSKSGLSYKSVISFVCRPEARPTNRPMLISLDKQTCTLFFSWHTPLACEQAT

B1: Chicken IGF2 (ligand, UniProt P33717 24-91, looked up)
chain: AYGTAETLCGGELVDTLQFVCGDRGFYFSRPVGRNNRRINRGIVEECCFRSCDLALLETYCAKSVKSE
modifications: ends and bridges not checked; also: biotin, site not given here
As to B1, the dissociation constant Kd (as a rule, the concentration at which binding is half-saturated) in experiment [1] amounted to 46 nM; in experiment [2] it was 63 nM.
